Results as given in article PMC6309729.
Where two headings read alike, the source gives them in different places.

Legend:
Test in all cases: other fluorescence titration
[1] = target: cpSRP54(234C)-acrylodan (Arabidopsis thaliana) (UniProt P37107)
[2] = target: acrylodan-labeled cpSRP54(234C, A142W) (Arabidopsis thaliana)
[3] = target: cpSRP54(234C)-acrylodan (Arabidopsis thaliana) (UniProt P37107); remark: listed apart in the source

kon [1]: 230000 M⁻¹ s⁻¹ | apparent dissociation rate constant (before subtracting GTP hydrolysis) [2]: 0.038 s⁻¹ | koff [2]: 0.03 s⁻¹ | kon [2]: 190000 M⁻¹ s⁻¹ | kon [3]: 157000 M⁻¹ s⁻¹
B1: cpFtsY (chloroplast SRP receptor), wildtype (natural protein)
chain: CSAGPSGFFTRLGRLIKEKAKSDVEKVFSGFSKTRENLAVIDELLLFWNLAETDRVLDELEEALLVSDFGPKITVRIVERLREDIMSGKLKSGSEIKDALKESVLEMLAKKNSKTELQLGFRKPAVIMIVGVNGGGKTTSLGKLAHRLKNEGTKVLMAAGDTFRAAASDQLEIWAERTGCEIVVAEGDKAKAATVLSKAVKRGKEEGYDVVLCDTSGRLHTNYSLMEELIACKKAVGKIVSGAPNEILLVLDGNTGLNMLPQAREFNEVVGITGLILTKLDGSARGGCVVSVVEELGIPVKFIGVGEAVEDLQPFDPEAFVNAIFS
